Experimental findings from patent US5723579A, “Fibrinogen binding peptides” (Bayer Corporation, priority 1996, dated 1998) are described below.

The target in test [1] is T1, fibrinogen (Homo sapiens, UniProt P02671+P02675+P02679).
T1 construct: purchased Sigma Chemical Co. (St. Louis, Mo.) and Chromogenix AB (Molndal, Sweden)
T1 sequence (P02671 20-644 isoform P02671-2 limits assumed): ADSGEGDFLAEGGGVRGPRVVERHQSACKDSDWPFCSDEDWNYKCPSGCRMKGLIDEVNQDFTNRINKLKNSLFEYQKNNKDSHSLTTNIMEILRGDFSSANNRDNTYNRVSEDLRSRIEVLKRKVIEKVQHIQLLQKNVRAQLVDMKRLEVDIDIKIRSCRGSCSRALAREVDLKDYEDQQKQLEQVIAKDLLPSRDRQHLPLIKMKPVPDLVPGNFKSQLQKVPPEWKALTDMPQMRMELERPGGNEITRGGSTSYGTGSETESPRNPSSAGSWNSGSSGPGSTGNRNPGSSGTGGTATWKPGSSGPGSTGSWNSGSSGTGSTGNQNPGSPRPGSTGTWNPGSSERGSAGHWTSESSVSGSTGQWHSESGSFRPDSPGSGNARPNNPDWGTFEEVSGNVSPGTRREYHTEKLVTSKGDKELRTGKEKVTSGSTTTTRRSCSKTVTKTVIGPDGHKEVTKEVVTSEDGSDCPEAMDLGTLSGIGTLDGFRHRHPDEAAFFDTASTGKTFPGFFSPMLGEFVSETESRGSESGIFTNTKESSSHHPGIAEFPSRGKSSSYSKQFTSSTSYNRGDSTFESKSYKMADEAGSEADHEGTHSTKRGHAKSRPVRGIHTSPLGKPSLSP
T1 sequence (P02675 31-491): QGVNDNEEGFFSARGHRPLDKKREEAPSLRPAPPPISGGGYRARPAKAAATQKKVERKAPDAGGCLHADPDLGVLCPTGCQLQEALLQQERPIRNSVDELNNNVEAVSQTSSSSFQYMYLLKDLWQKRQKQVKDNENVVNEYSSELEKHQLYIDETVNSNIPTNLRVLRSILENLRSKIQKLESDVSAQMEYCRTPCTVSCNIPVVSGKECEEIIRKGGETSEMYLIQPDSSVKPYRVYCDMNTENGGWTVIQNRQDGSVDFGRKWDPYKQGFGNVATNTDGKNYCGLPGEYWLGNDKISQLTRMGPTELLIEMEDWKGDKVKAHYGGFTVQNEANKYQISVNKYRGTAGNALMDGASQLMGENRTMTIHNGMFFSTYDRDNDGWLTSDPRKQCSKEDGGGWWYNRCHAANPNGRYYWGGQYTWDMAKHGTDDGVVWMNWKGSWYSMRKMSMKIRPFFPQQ
T1 sequence (P02679 27-453): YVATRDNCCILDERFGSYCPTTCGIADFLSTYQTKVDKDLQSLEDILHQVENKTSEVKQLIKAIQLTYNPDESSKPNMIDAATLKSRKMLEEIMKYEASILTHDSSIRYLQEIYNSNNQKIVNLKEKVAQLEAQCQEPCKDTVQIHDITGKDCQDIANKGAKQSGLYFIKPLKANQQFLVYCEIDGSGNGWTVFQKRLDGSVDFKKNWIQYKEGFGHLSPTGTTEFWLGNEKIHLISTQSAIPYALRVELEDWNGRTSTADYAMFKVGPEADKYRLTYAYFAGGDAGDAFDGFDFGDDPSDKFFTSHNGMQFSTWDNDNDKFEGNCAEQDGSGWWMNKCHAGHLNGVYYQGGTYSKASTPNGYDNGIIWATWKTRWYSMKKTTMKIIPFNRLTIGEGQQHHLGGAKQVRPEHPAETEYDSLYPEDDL
Kind of test: Confirmatory binding assay in column chromatographic format: fibrinogen applied to peptide resins, NaCl wash and acid eluate quantified by A280. The following applies: for 2% Acetic Acid Eluate, A280: peptide synthesized on A-Totda-Toyopearl, Table 2; for 1 M NaCl Eluate, integration of the absorbance at 280 nm / 2% Acetic Acid Eluate, integration of the absorbance at 280 nm: truncations on A-Totda-Toyopearl, Table 6. Here is the method: Confirmatory binding assays were performed in a column chromatographic format on a microbore HPLC using individual peptide sequences synthesized directly onto the Toyopearl 650M Chelate resin which had been modified with Totda followed by an alanine residue (A-Totda-Toyopearl), at a final substitution density of 0.2 mmole/g resin. […] The endpoint was a dose-dependent increase in the acid eluate in the fibrinogen contactings, and quantification was by integration of the absorbance at 280 nm (Table 2).
Peptides PLLVPL and FLLVPL, with and without an N-acetylated amino terminus, were synthesized directly onto Ala-Totda-Toyopearl at a density of approximately 0.2 mmole/g resin. The ability of these resins to bind fibrinogen was determined as above. An unblocked (free) amino terminus was required for binding fibrinogen to PLLVPL-A-Totda-Toyopearl (Table 5) (SEQ ID NO:2). Similar results were obtained in a separate experiment by using FLLVPL-A-Totda-Toyopearl (Table 5) (SEQ ID NO:1).
Truncations from the carboxyl- and amino- termini of PLLVPL and FLLVPL (SEQ ID NOS 2 and 1, respectively) synthesized directly on A-Totda-Toyopearl resin in order to identify the minimum sequence necessary for binding.

The target of test [2] is T1, fibrinogen. Briefly: Isothermal titration calorimetry of peptide binding to purified fibrinogen. The following applies: solution phase binding, soluble peptide; 30° C., 30 mM phosphate buffer, pH 7.0. The procedure: Isothermal titration colorimetry was performed using either purified, soluble peptides (5 mM) or peptides synthesized directly on A-Totda-Togopearl (1.4mM) and with purified fibrinogen (50 μM) by a modification of the technique of Tyler-Cross et at. (1993). All measurements were performed at 30° C. in 30 mM phosphate buffer, pH 7.0 with an Omega titration colorimeter (Microcal, Inc., Northampton, Mass.).
Solution phase binding isotherms were performed on the purified soluble peptides and purified fibrinogen by using isothermal titration calorimetry (Table 3). […] A change from P to F at the amino terminus lowered the dissociation constant over 150-fold. PLLVPL (SEQ ID NO:2) bound to approximately 3 to 4 sites per fibrinogen molecule. […] Both peptide binding reactions were endothermic as indicated by the positive enthalpy (ΔH), and were thermodynamically favorable (negative ΔG) under the conditions tested. Unusually high entropic terms indicate a conformational change may be driving the association of peptide with fibrinogen.
For orientation: Isothermal titration calorimetry measures the heat released or taken up as one component is titrated into another.

In test [3] the target is T1, fibrinogen. Briefly: Characterization of binding interaction: fibrinogen (25 mg) on 5 ml FLLVPL resin column, binding and elution under varied conditions. The procedure: Peptide FLLVPL was synthesized directly on A-Totda-Toyopearl at a density of 0.2 mmole/g resin. A column of dimensions 1.0×6.4 cm (approximately 5 ml column volume) was equilibrated with either 10 mM HEPES or 10 mM sodium acetate, pH 6.8, 1.0 mM EGTA and either 0.1, 0.2 or 1.0M NaCl. Fibrinogen (25 mg; 5.0 ml) was applied to the column in 10 mM sodium acetate, pH 6.8 and 1 mM EGTA containing 0.1M NaCl.
Fibrinogen (25 mg; 5.0 ml) was applied to the column in 10 mM sodium acetate, pH 6.8 and 1 mM EGTA containing 0.1M NaCl.
No elution of fibrinogen (applied to the column in 10 mM sodium acetate, pH 6.8 and 1 mM EGTA containing 0.1M NaCl) was observed by using the hydrophilic compound, polyethylene glycol (10%). Only approximately 8 percent of the applied fibrinogen was eluted by increasing the pH to 10 with 10 mM sodium borate. Further increases in pH with a linear gradient (pH 6.8 to 12.0) released approximately 25 percent of the fibrinogen.
In order to assess further the contribution of hydrophobic interactions to the binding mechanism of FLLVPL (SEQ ID NO.:1) to fibrinogen, fibrinogen (25 mg; 5.0 ml) was applied to the peptide under high salt conditions favorable to hydrophobic bonding and release under low ionic strength. The peptide resin was equilibrated with 10 mM sodium acetate, 1.0M NaCl, and 1.0 mM EGTA, pH 6.8. Five milliliters of a solution of fibrinogen (5 mg/ml) in the same buffer was applied to the column, and washed with two column volumes of the same buffer. The resin was then contacted with 10 column volumes of 10 mM sodium acetate, pH 4.0 followed by 2% acetic acid (4 column volumes). […] Low ionic strength and low pH (4.0) released approximately 78.3 percent of the protein. However, only 5% of the applied protein was eluted in a second experiment when the 10 mM sodium acetate, pH 4.0 solution contained 0.1M NaCl. Acid treatment released the remainder of the recovered protein in both experiments.

pKd: −log10 of the molar value. No end group written: not given here.

“Phe-Ala-Leu-Val- Pro-Leu (FALVPL; not fully specified (C-terminus); printed as Phe-Ala-Leu-Val-Pro-Leu)”: the “2% Acetic Acid Eluate, A280” value in the test with fibrinogen [1] (250 μg fibrinogen applied) is given as 0.72; in the test with fibrinogen [1] (500 μg fibrinogen applied), 1.35; with fibrinogen [1] (1000 μg fibrinogen applied), 2.78.

For orientation: pKd means −log10 of the Kd, conventionally taken in molar units. High values mean a low Kd, low ones a high Kd. On fibrinogen [2], “PLLVPL-NH2 [PLLVPL, Pro-Leu-Leu-Val-Pro-Leu]” had a pKd of 3.16.

As for “ALLVPL: peptide sequence ALLVPL synthesized on A-Totda-Toyopearl (not fully specified (C-terminus))”, the “2% Acetic Acid Eluate, A280” value with fibrinogen [1] (250 μg fibrinogen applied) is 0.02; with fibrinogen [1] (500 μg fibrinogen applied), 0.09; with fibrinogen [1] (1000 μg fibrinogen applied), 0.12.

For “AALVPL: peptide sequence AALVPL synthesized on A-Totda-Toyopearl (not fully specified (C-terminus))”, the figures for the “2% Acetic Acid Eluate, A280” value in the test with fibrinogen [1] (250 μg fibrinogen applied), in the test with fibrinogen [1] (500 μg fibrinogen applied) and with fibrinogen [1] (1000 μg fibrinogen applied) were 0.02, 0.09 and 0.12, respectively.

Take “Phe-Leu-Leu-Val (FLLV; printed: Phe-Leu-Leu-Val) [truncation of FLLVPL on A-Totda-Toyopearl resin]”: the results for the “1 M NaCl Eluate, integration of the absorbance at 280 nm” value in the test with fibrinogen [1] (250 μg fibrinogen applied), with fibrinogen [1] (500 μg fibrinogen applied) and in the test with fibrinogen [1] (1000 μg fibrinogen applied) were 0.00 ×10^6, 0.00 ×10^6 and 0.50 ×10^6, respectively. Further, the “2% Acetic Acid Eluate, integration of the absorbance at 280 nm” value in the test with fibrinogen [1] (250 μg fibrinogen applied) is 1.51 ×10^6; in the test with fibrinogen [1] (500 μg fibrinogen applied), 1.79 ×10^6; in the test with fibrinogen [1] (1000 μg fibrinogen applied), 4.99 ×10^6.

Consider “PALVPL: peptide sequence PALVPL synthesized on A-Totda-Toyopearl (not fully specified (C-terminus))”, for which the “2% Acetic Acid Eluate, A280” value in the test with fibrinogen [1] (250 μg fibrinogen applied) is given as 0.01; with fibrinogen [1] (500 μg fibrinogen applied), 0.06; in the test with fibrinogen [1] (1000 μg fibrinogen applied), 0.13.

Regarding “FLLVPL-NH2 [FLLVPL, Phe-Leu-Leu-Val-Pro-Leu]”, at fibrinogen [2], the negative-log Kd (pKd) was 5.35. The same substance yielded an applied protein eluted on fibrinogen [3] (10 mM sodium acetate, pH 4.0 containing 0.1M NaCl (second experiment)) of 5%. Besides, on fibrinogen [3] (applied in 10 mM sodium acetate, 1.0M NaCl, 1.0 mM EGTA, pH 6.8), the “applied protein (A280) not interacting with the column, recovered in flow through and wash” value is given as “Approximately 7.2%”. Moreover, the “release of the applied protein” value at fibrinogen [3] (elution with ionic detergent (2% sodium cholate)) came out at 14%; on fibrinogen [3] (elution with nonionic detergent (5% Tween-20) in the binding buffer), 40%. In addition, the fibrinogen released entry at fibrinogen [3] (linear pH gradient (pH 6.8 to 12.0)) is “approximately 25%”. Moreover, the protein released result at fibrinogen [3] (low ionic strength, 10 mM sodium acetate, pH 4.0, after high salt application) is “approximately 78.3%”. Moreover, on fibrinogen [3] (pH 6.8, 1.0 mM EGTA, column equilibrated with 0.1, 0.2 or 1.0M NaCl), the “applied absorbance (280 nm) that failed to bind the column” value fell in the range of 5 to 8%. The release of fibrinogen entry on fibrinogen [3] (pH gradient from 6.8 to 4.0, release at pH 4.2) was “approximately 66%”. In addition, at fibrinogen [3] (pH increased to 10 with 10 mM sodium borate), the applied fibrinogen eluted entry is reported as “approximately 8%”.
